The results in this text go back to patent publication US20190185537A1 (AstraZeneca / MedImmune, published 2019).

Numbered stars: 1 amine (or outer) side, 2 acyl side, 3 side chain; on linkers, the order of the positions; unused ones are H or OH. Side chains are listed from the residue outwards. Ends that are not written are not given here. * marks the point of attachment. γGlu = O=C(O)[C@H](CCC(=O)[*:2])N[*:1]; Palmitoyl = CCCCCCCCCCCCCCCC(=O)*

Test in all cases: cell-based or functional assay
The target of one assay is human GLP-1 receptor (human, UniProt P43220 24-463).
In a further assay the target is human glucagon receptor (human, UniProt P47871 26-477).
Assay [1] concerns the target T1, human glucose-dependent insulinotropic peptide (gastric inhibitory polypeptide) receptor (human) (UniProt P48546).
T1 sequence (looked up): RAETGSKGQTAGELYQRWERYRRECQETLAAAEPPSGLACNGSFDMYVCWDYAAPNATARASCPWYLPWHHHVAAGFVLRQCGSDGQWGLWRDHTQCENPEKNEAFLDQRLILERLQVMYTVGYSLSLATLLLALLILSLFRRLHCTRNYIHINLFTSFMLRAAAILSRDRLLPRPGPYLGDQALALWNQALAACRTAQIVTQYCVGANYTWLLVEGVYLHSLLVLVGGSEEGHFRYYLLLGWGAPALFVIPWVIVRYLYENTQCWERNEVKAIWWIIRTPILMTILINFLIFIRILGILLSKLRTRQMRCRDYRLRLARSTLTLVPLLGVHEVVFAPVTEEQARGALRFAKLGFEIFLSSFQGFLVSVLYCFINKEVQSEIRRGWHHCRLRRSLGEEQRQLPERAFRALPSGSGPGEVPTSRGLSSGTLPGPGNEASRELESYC

human glucagon receptor, sequence (P47871 26-477): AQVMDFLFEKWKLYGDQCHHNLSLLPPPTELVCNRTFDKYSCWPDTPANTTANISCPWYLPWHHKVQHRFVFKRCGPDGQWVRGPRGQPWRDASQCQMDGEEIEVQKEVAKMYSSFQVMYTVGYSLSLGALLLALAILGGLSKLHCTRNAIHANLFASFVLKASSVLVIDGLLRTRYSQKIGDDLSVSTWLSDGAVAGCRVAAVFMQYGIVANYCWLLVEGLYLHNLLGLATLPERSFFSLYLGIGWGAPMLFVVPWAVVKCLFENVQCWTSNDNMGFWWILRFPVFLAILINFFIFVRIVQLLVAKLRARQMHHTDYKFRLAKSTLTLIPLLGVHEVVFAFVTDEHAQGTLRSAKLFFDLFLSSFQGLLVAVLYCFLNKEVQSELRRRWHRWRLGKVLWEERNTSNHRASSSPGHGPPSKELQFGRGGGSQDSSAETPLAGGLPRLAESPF
human GLP-1 receptor, sequence (P43220 24-463): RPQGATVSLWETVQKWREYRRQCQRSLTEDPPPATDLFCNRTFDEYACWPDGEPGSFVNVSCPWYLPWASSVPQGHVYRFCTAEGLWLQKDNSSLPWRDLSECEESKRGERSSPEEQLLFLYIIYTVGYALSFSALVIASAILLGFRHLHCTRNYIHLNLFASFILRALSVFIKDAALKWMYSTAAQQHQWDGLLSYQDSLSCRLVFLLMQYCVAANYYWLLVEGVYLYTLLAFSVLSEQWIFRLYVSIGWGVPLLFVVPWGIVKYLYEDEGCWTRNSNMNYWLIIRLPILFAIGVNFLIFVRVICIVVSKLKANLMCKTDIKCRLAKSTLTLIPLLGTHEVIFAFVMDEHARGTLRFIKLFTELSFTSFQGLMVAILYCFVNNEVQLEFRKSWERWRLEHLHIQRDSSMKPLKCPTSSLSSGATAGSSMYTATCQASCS

B1: g728 (peptide)
peptide: HSQGTFTSDYSK([γGlu-Palmitoyl])YLDSERARDFVAWLVAGG-NH2
modifications: N-terminus assumed
SMILES: CCCCCCCCCCCCCCCC(=O)N[C@@H](CCC(=O)NCCCC[C@H](NC(=O)[C@H](CO)NC(=O)[C@H](Cc1ccc(O)cc1)NC(=O)[C@H](CC(=O)O)NC(=O)[C@H](CO)NC(=O)[C@@H](NC(=O)[C@H](Cc1ccccc1)NC(=O)[C@@H](NC(=O)CNC(=O)[C@H](CCC(N)=O)NC(=O)[C@H](CO)NC(=O)[C@@H](N)Cc1c[nH]cn1)[C@@H](C)O)[C@@H](C)O)C(=O)N[C@@H](Cc1ccc(O)cc1)C(=O)N[C@@H](CC(C)C)C(=O)N[C@@H](CC(=O)O)C(=O)N[C@@H](CO)C(=O)N[C@@H](CCC(=O)O)C(=O)N[C@@H](CCCNC(=N)N)C(=O)N[C@@H](C)C(=O)N[C@@H](CCCNC(=N)N)C(=O)N[C@@H](CC(=O)O)C(=O)N[C@@H](Cc1ccccc1)C(=O)N[C@H](C(=O)N[C@@H](C)C(=O)N[C@@H](Cc1c[nH]c2ccccc12)C(=O)N[C@@H](CC(C)C)C(=O)N[C@H](C(=O)N[C@@H](C)C(=O)NCC(=O)NCC(N)=O)C(C)C)C(C)C)C(=O)O
As for B1, the cAMP EC50 (assay 1) with human GLP-1 receptor came to 0.169 nM; in the assay with human glucagon receptor, 2.44 nM; in assay [1] it was 395 nM.

B2: g729 (peptide)
peptide: HSQGTFTSDYSKK([γGlu-Palmitoyl])LDSERAQDFVQWLVAGG-NH2
modifications: N-terminus assumed
SMILES: CCCCCCCCCCCCCCCC(=O)N[C@@H](CCC(=O)NCCCC[C@H](NC(=O)[C@H](CCCCN)NC(=O)[C@H](CO)NC(=O)[C@H](Cc1ccc(O)cc1)NC(=O)[C@H](CC(=O)O)NC(=O)[C@H](CO)NC(=O)[C@@H](NC(=O)[C@H](Cc1ccccc1)NC(=O)[C@@H](NC(=O)CNC(=O)[C@H](CCC(N)=O)NC(=O)[C@H](CO)NC(=O)[C@@H](N)Cc1c[nH]cn1)[C@@H](C)O)[C@@H](C)O)C(=O)N[C@@H](CC(C)C)C(=O)N[C@@H](CC(=O)O)C(=O)N[C@@H](CO)C(=O)N[C@@H](CCC(=O)O)C(=O)N[C@@H](CCCNC(=N)N)C(=O)N[C@@H](C)C(=O)N[C@@H](CCC(N)=O)C(=O)N[C@@H](CC(=O)O)C(=O)N[C@@H](Cc1ccccc1)C(=O)N[C@H](C(=O)N[C@@H](CCC(N)=O)C(=O)N[C@@H](Cc1c[nH]c2ccccc12)C(=O)N[C@@H](CC(C)C)C(=O)N[C@H](C(=O)N[C@@H](C)C(=O)NCC(=O)NCC(N)=O)C(C)C)C(C)C)C(=O)O
As to B2, the cAMP EC50 (assay 1) in the assay with human GLP-1 receptor is 0.0729 nM; with human glucagon receptor, 0.0319 nM; in assay [1] it was 209 nM.

B3: g716 (peptide)
peptide: HSQGTFTSDYK([γGlu-Palmitoyl])KYLDSRRAQDFVQWLVAGG-NH2
modifications: N-terminus assumed
SMILES: CCCCCCCCCCCCCCCC(=O)N[C@@H](CCC(=O)NCCCC[C@H](NC(=O)[C@H](Cc1ccc(O)cc1)NC(=O)[C@H](CC(=O)O)NC(=O)[C@H](CO)NC(=O)[C@@H](NC(=O)[C@H](Cc1ccccc1)NC(=O)[C@@H](NC(=O)CNC(=O)[C@H](CCC(N)=O)NC(=O)[C@H](CO)NC(=O)[C@@H](N)Cc1c[nH]cn1)[C@@H](C)O)[C@@H](C)O)C(=O)N[C@@H](CCCCN)C(=O)N[C@@H](Cc1ccc(O)cc1)C(=O)N[C@@H](CC(C)C)C(=O)N[C@@H](CC(=O)O)C(=O)N[C@@H](CO)C(=O)N[C@@H](CCCNC(=N)N)C(=O)N[C@@H](CCCNC(=N)N)C(=O)N[C@@H](C)C(=O)N[C@@H](CCC(N)=O)C(=O)N[C@@H](CC(=O)O)C(=O)N[C@@H](Cc1ccccc1)C(=O)N[C@H](C(=O)N[C@@H](CCC(N)=O)C(=O)N[C@@H](Cc1c[nH]c2ccccc12)C(=O)N[C@@H](CC(C)C)C(=O)N[C@H](C(=O)N[C@@H](C)C(=O)NCC(=O)NCC(N)=O)C(C)C)C(C)C)C(=O)O
As for B3, the results for the cAMP EC50 (assay 1) (with human GLP-1 receptor; with human glucagon receptor; in assay [1]) were 12.9 nM, 2.46 nM and 11.8 nM, respectively.

B4: g715 (peptide)
peptide: HSQGTFTSDK([γGlu-Palmitoyl])SKYLDSRRAQDFVQWLVAGG-NH2
modifications: N-terminus assumed
SMILES: CCCCCCCCCCCCCCCC(=O)N[C@@H](CCC(=O)NCCCC[C@H](NC(=O)[C@H](CC(=O)O)NC(=O)[C@H](CO)NC(=O)[C@@H](NC(=O)[C@H](Cc1ccccc1)NC(=O)[C@@H](NC(=O)CNC(=O)[C@H](CCC(N)=O)NC(=O)[C@H](CO)NC(=O)[C@@H](N)Cc1c[nH]cn1)[C@@H](C)O)[C@@H](C)O)C(=O)N[C@@H](CO)C(=O)N[C@@H](CCCCN)C(=O)N[C@@H](Cc1ccc(O)cc1)C(=O)N[C@@H](CC(C)C)C(=O)N[C@@H](CC(=O)O)C(=O)N[C@@H](CO)C(=O)N[C@@H](CCCNC(=N)N)C(=O)N[C@@H](CCCNC(=N)N)C(=O)N[C@@H](C)C(=O)N[C@@H](CCC(N)=O)C(=O)N[C@@H](CC(=O)O)C(=O)N[C@@H](Cc1ccccc1)C(=O)N[C@H](C(=O)N[C@@H](CCC(N)=O)C(=O)N[C@@H](Cc1c[nH]c2ccccc12)C(=O)N[C@@H](CC(C)C)C(=O)N[C@H](C(=O)N[C@@H](C)C(=O)NCC(=O)NCC(N)=O)C(C)C)C(C)C)C(=O)O
B4: the cAMP EC50 (assay 1) is 0.0204 nM with human GLP-1 receptor, 0.00253 nM in the assay with human glucagon receptor and 0.998 nM in assay [1].

B5: g802 (peptide)
peptide: HSQGTFTSDYSEK([γGlu-Palmitoyl])LDSERARDFVAWLVAGG-NH2
modifications: N-terminus assumed
SMILES: CCCCCCCCCCCCCCCC(=O)N[C@@H](CCC(=O)NCCCC[C@H](NC(=O)[C@H](CCC(=O)O)NC(=O)[C@H](CO)NC(=O)[C@H](Cc1ccc(O)cc1)NC(=O)[C@H](CC(=O)O)NC(=O)[C@H](CO)NC(=O)[C@@H](NC(=O)[C@H](Cc1ccccc1)NC(=O)[C@@H](NC(=O)CNC(=O)[C@H](CCC(N)=O)NC(=O)[C@H](CO)NC(=O)[C@@H](N)Cc1c[nH]cn1)[C@@H](C)O)[C@@H](C)O)C(=O)N[C@@H](CC(C)C)C(=O)N[C@@H](CC(=O)O)C(=O)N[C@@H](CO)C(=O)N[C@@H](CCC(=O)O)C(=O)N[C@@H](CCCNC(=N)N)C(=O)N[C@@H](C)C(=O)N[C@@H](CCCNC(=N)N)C(=O)N[C@@H](CC(=O)O)C(=O)N[C@@H](Cc1ccccc1)C(=O)N[C@H](C(=O)N[C@@H](C)C(=O)N[C@@H](Cc1c[nH]c2ccccc12)C(=O)N[C@@H](CC(C)C)C(=O)N[C@H](C(=O)N[C@@H](C)C(=O)NCC(=O)NCC(N)=O)C(C)C)C(C)C)C(=O)O
For the molecule B5, the cAMP EC50 (assay 1) worked out at 0.0964 nM with human GLP-1 receptor, 1.81 nM in the assay with human glucagon receptor and 91.2 nM in assay [1].

B6: g820 (peptide)
peptide: HSQGTFTSDYSRK([γGlu-Palmitoyl])LDSERARDFVAWLVAGG-NH2
modifications: N-terminus assumed
SMILES: CCCCCCCCCCCCCCCC(=O)N[C@@H](CCC(=O)NCCCC[C@H](NC(=O)[C@H](CCCNC(=N)N)NC(=O)[C@H](CO)NC(=O)[C@H](Cc1ccc(O)cc1)NC(=O)[C@H](CC(=O)O)NC(=O)[C@H](CO)NC(=O)[C@@H](NC(=O)[C@H](Cc1ccccc1)NC(=O)[C@@H](NC(=O)CNC(=O)[C@H](CCC(N)=O)NC(=O)[C@H](CO)NC(=O)[C@@H](N)Cc1c[nH]cn1)[C@@H](C)O)[C@@H](C)O)C(=O)N[C@@H](CC(C)C)C(=O)N[C@@H](CC(=O)O)C(=O)N[C@@H](CO)C(=O)N[C@@H](CCC(=O)O)C(=O)N[C@@H](CCCNC(=N)N)C(=O)N[C@@H](C)C(=O)N[C@@H](CCCNC(=N)N)C(=O)N[C@@H](CC(=O)O)C(=O)N[C@@H](Cc1ccccc1)C(=O)N[C@H](C(=O)N[C@@H](C)C(=O)N[C@@H](Cc1c[nH]c2ccccc12)C(=O)N[C@@H](CC(C)C)C(=O)N[C@H](C(=O)N[C@@H](C)C(=O)NCC(=O)NCC(N)=O)C(C)C)C(C)C)C(=O)O
As for B6, the cAMP EC50 (assay 1) is 0.0339 nM in the assay with human GLP-1 receptor, 0.0117 nM in the assay with human glucagon receptor and 71.1 nM in assay [1].

B7: g842 (peptide)
peptide: HSQGTFTSDYSRK([γGlu-Palmitoyl])LDSERARDFVAWLVAGG-OH
modifications: N-terminus assumed
SMILES: CCCCCCCCCCCCCCCC(=O)N[C@@H](CCC(=O)NCCCC[C@H](NC(=O)[C@H](CCCNC(=N)N)NC(=O)[C@H](CO)NC(=O)[C@H](Cc1ccc(O)cc1)NC(=O)[C@H](CC(=O)O)NC(=O)[C@H](CO)NC(=O)[C@@H](NC(=O)[C@H](Cc1ccccc1)NC(=O)[C@@H](NC(=O)CNC(=O)[C@H](CCC(N)=O)NC(=O)[C@H](CO)NC(=O)[C@@H](N)Cc1c[nH]cn1)[C@@H](C)O)[C@@H](C)O)C(=O)N[C@@H](CC(C)C)C(=O)N[C@@H](CC(=O)O)C(=O)N[C@@H](CO)C(=O)N[C@@H](CCC(=O)O)C(=O)N[C@@H](CCCNC(=N)N)C(=O)N[C@@H](C)C(=O)N[C@@H](CCCNC(=N)N)C(=O)N[C@@H](CC(=O)O)C(=O)N[C@@H](Cc1ccccc1)C(=O)N[C@H](C(=O)N[C@@H](C)C(=O)N[C@@H](Cc1c[nH]c2ccccc12)C(=O)N[C@@H](CC(C)C)C(=O)N[C@H](C(=O)N[C@@H](C)C(=O)NCC(=O)NCC(=O)O)C(C)C)C(C)C)C(=O)O
Regarding B7, the cAMP EC50 (assay 1) in the assay with human GLP-1 receptor worked out at 0.0512 nM; with human glucagon receptor it was 0.00831 nM; in assay [1] it was 88.3 nM.
